Measured values from US20040002439A1 (ORTHO MCNEIL PHARMACEUTICAL, published 2004).

Biological target: Nav1.2 (a type II alpha subunit)
Test: cell-based or functional assay

B1: human voltage gated sodium channel β1A subunit (other)
chain: ACGGCVEVDSETEAVYGMTFKILCISCKRRSETNAETFTEWTFRQKGTEEFVKILRYENEVLQLEEDERFEGRVVWNGSRGTKDLQDLSIFITNVTYNHSGDYECHVYRLLFFENYEHNTSVVKKIHIEVVDKGESGAACPFTVTHRRARWRDRWQAVDRTGWLCAWPANRPQQRAEGEGSSPSCPLQLWPLFLSSPRRGQSMPVPHRRSGYRTQLCHLCCMTSGRCLLSLSQRVVLGLPGIIIRCVSRGVV
ionic current conducted by Nav1.2 in Xenopus oocytes (cut-open oocyte voltage clamp): ~3 fold
